Data on two molecules can be found in publication PMC7506551, “A heterotrimeric SMARCB1–SMARCC2 subcomplex is required for the assembly and tumor suppression function of the BAF chromatin-remodeling complex” (Cell Discovery, 2020).

In one experiment the target is T1, SMARCB1 (aa 169–385) (human, UniProt Q12824 169-385).
T1 construct: SMARCB1/BAF47/INI1/SNF5, human, residues 169-385, holds the Rpt1 and Rpt2 motifs; resolved 184-356 in the crystal; they may stand in the supplementary information; also called SMARCB1^(169–385); BAF47
Put plainly: ITC; conditions not shown; two-site binding model for SMARCC2 325-518 with SMARCB1 169-385. The note with it: both partners purified. (In general: ITC needs no label: the signal is the heat of the interaction.)

For experiment [1], the target named is T2, SWIRM domain of SMARCC2 (aa 423–518) (human, UniProt Q8TAQ2 423-518).
T2 construct: SMARCC2/BAF170, human, SWIRM domain, residues 423-518; also called SMARCC2^(423–518); SMARCC2^SWIRM
Described as above. The note with it: both partners purified.

B1: SMARCC2 (aa 325–518) (domain or fragment, human, UniProt Q8TAQ2 325-518, looked up)
chain: TKSKRGHREEEQEDLTKDMDEPSPVPNVEEVTLPKTVNTKKDSESAPVKGGTMTDLDEQEDESMETTGKDEDENSTGNKGEQTKNPDLHEDNVTEQTHHIIIPSYAAWFDYNSVHAIERRALPEFFNGKNKSKTPEIYLAYRNFMIDTYRLNPQEYLTSTACRRNLAGDVCAIMRVHAFLEQWGLINYQVDAES
notes: SMARCC2/BAF170, human, residues 325-518, holds the SWIRM domain; resolved 423-514 in the crystal, residues 325-422 possibly degraded during crystallization; Two copies stand in the heterotrimer with one SMARCB1 169-385; also called SMARCC2^(325–518); BAF170
For B1, in the experiment with SMARCB1 (aa 169–385), the “Kd of one of the two sites (two-site binding model)” value worked out at 112 nM.

B2: isolated Rpt1 motif of SMARCB1 (domain or fragment)
chain: DDHDPAVIHENASQPEVLVPIRLDMEIDGQKLRDAFTWNMNEKLMTPEMFSEILCDDLDLNPLTFVPAIASAIRQQIESYPTDS
What is called Kd is the concentration at which binding is half-saturated. The low end stands for a tighter complex, the high end for a looser complex. On to B2, for which the Kd in experiment [1] is about 120 nM.
